Drawing on patent US20220396614A1, this text covers Kd and fold lower affinity than mAb 4493 for two substances.

As a reminder, the Kd is the constant that tells how readily two partners part at equilibrium. Low readings indicate a tighter complex, high ones a looser complex.

The target in this experiment is NANP 5.5-mer peptide, NP(NANP)5, representative of the PfCSP central repeat (Plasmodium falciparum (NF54)). As to the kind of experiment: SPR (FIG. 5E).

In turn, mAb 317 (antibody) returned a Kd below 0.1 nM.

With mAb CIS43 (antibody), the fold lower affinity than mAb 4493 amounted to 100 fold.
